From US20150218248A1 come the findings set out here.

In the assay the target is HLA-A2 molecule. Nature of the assay: HLA class I stabilization assay, RMA-S/A2 cells, peptide 10 µg/ml, flow cytometry with BB7.2. Background: In flow cytometry, cells or beads pass a laser one at a time.

The molecule IMQLMPFGCLL [T790M-8] returned an HLA binding capability (%) (MFI increase) of 69.3%.

Regarding LIMQLMPFGCL [T790M-7], the HLA binding capability (%) (MFI increase) was 31.2%.

As to MQLMPFGCLL [T790M-5], the HLA binding capability (%) (MFI increase) was 267%.
